doi:10.1101/2024.09.22.614354 (bioRxiv, 2024)
Positions count from the first letter of the chain named.

Columns and labels:
Experiment in all cases: fluorescence polarisation
Rb^P S474R = target: T1, Rb^P S474R (human, UniProt P06400 380-788, S474R)
T1 sequence: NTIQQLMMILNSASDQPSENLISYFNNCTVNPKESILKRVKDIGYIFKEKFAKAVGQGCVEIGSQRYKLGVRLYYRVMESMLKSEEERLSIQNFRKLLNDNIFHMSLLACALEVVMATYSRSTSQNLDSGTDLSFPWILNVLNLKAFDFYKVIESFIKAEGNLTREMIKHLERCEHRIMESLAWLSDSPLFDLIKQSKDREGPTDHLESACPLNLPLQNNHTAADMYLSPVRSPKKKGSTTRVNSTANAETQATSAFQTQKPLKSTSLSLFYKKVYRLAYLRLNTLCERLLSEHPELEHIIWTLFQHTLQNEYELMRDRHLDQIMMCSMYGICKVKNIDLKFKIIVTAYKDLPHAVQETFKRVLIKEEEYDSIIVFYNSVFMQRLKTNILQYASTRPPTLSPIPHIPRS

Rb^P A525G = target: T2, Rb^P A525G (human, UniProt P06400 380-788, A525G)
T2 sequence: T1 sequence with R95S, A146G

Rb^P R741S = target: T3, Rb^P R741S (human, UniProt P06400 380-788, R741S)
T3 sequence: T1 sequence with R95S, R362S

Rb^P K530I = target: T4, Rb^P K530I (human, UniProt P06400 380-788, K530I)
T4 sequence: T1 sequence with R95S, K151I

Rb^P H555Y = target: T5, Rb^P H555Y (human, UniProt P06400 380-788, H555Y)
T5 sequence: T1 sequence with R95S, H176Y

Measured: binding result

B1: TMR-E7^LxCxE (LxCxE peptide of the E7 oncoprotein from HPV, TMR-labeled) (peptide)
peptide: DLYCYEQLN
modifications: not fully specified; TMR fluorescent label (TMR-E7^LxCxE)
binds: Rb^P S474R | Rb^P A525G | Rb^P R741S | Rb^P K530I | Rb^P H555Y
